B1: Lysine-specific demethylase 2B, residues 656 to 722; numbered along this chain, Q8NHM5 (parent)
chain: LPHTAVCLVCGEAGKEDTVEEEEGKFNLMLMECSICNEIIHPGCLKIKESEGVVNDELPNCWECPKC

Variants of: B1
Test: abundance fitness (aPCA) (normalised: wild type 0, dead -1); higher = more abundant; growth selection in yeast, the domain comes from the species named
Details: Homo sapiens

Abundance fitness, by site and new letter:
K25: V -0.525; R -0.324; H -0.31; N -0.118; C -0.329; A -0.242; Y -0.677; L -0.441; P -0.787; G -0.33; I -0.453; S -0.348; M -0.238; W -0.859; F -0.602; T -0.432
L30: M -0.373; Q -0.337; K -0.034; T -0.212; H -0.603; C -0.232; A -0.35; W -0.309; N -0.152; S -0.452; P -0.435; R -0.196; G -0.209; F -0.778
F26: N 0.053; I 0.028; Y -0.234; K -0.257; H -0.343; G -0.278; M 0.062; V -0.164; R -0.018; Q -0.37; L -0.297; E -0.176; P -0.165; S -0.343; T -0.155; D -0.4; A -0.204
E21: V 0.06; Y -0.035; W -0.354; S 0.305; Q -0.324; T 0.238; R 0.034
G24: Q -0.123; S 0.15; N 0.123; P -0.481; I -0.049; R -0.121; V -0.021; F 0.006; M 0.375; L 0.045; W -0.526; E 0.013; K -0.051; Y 0.154; T 0.019; H 0.346; C -0.415; A 0.011
E23: Y -0.36; G 0.13; P -0.342; L -0.354; W -0.554; V 0.035; D -0.016; A 0.004; F -0.058; N -0.05; S 0.185; T -0.028; R -0.058; Q -0.21; K 0.157; C -0.193; M -0.088
L28: T 0.241; H 0.118; D -0.068; F 0.081; G -0.076; A 0.124; C -0.16; K 0.152; R -0.148; S 0.068; W 0.039; N 0.476; P -0.162; M 0.364; Y -0.169
M29: G -0.247; H -0.31; V -0.318; I -0.652; S 0.039; A -0.297; E -0.362; L -0.274; D -0.552; W -0.522; R 0.278; Q -0.15; P -0.267; C -0.026
N27: P -0.038; E -0.044; K 0.064; G -0.113; T -0.169; M 0.077; F -0.22; I -0.275; V -0.472; A 0.091; Q -0.206; R -0.036; L -0.137; S -0.085; Y -0.179; D -0.058; C -0.706
E22: W -0.308; M 0.113; V -0.049; T 0.171; S -0.01; H -0.099; L -0.011; P -0.449; N -0.162; D -0.153; K 0.261; Q 0.086; A 0.032; C -0.235; I -0.131; G -0.009; Y -0.291
M31: C -0.219; S -0.446; T -0.405; H -0.25; Q -0.662; K -0.093; L -0.053; R -0.141; I -0.238; G -0.485; F -0.272; V -0.276; W -0.229; A -0.18; P -0.847
